For assay [1], the target named is T1, mouse complement C3 (ca. 37 kDa fragment, C3d, from mouse plasma) (mouse, UniProt P01027 1002-1303, limits assumed).
T1 construct: Native protein of plasma/serum, pulled down as a ca. 37 kDa band; also called mouse C3; mouse C3d
Briefly: immunoprecipitation from NCR nude mouse plasma, SDS-PAGE.

The target of assay [2] is human FGFR4-FGFR1 chimeric construct on BaF3 cells (human, UniProt P11362 398-820, limits assumed). Briefly: cell-based or functional assay.
Assay [3] deals with T2, cynomolgus FGFR4-Fc chimeric protein (cynomolgus monkey).
T2 construct: also called cFGFR4
Briefly: solid phase binding assay, LD1 on immobilized cFGFR4-Fc, OD 450 nm.

Assay [4] deals with T3, cynomolgus monkey FGFR4 (SPR of FIG. 2B, construct not stated) (cynomolgus monkey).
T3 construct: also called cynomolgus FGFR4
Briefly: surface plasmon resonance (table row 'Cynomolgus', column 'Kd (nM)'). Background: Surface plasmon resonance follows binding to a sensor surface in real time, without labels.

For assay [5], the target named is T4, human FGFR4 (recombinant, construct not stated; SPR, FGFR4 ELISA, receptor-binding assay) (human, UniProt P22455 22-369, limits assumed).
T4 construct: Whole exemplary entry named
T4 sequence: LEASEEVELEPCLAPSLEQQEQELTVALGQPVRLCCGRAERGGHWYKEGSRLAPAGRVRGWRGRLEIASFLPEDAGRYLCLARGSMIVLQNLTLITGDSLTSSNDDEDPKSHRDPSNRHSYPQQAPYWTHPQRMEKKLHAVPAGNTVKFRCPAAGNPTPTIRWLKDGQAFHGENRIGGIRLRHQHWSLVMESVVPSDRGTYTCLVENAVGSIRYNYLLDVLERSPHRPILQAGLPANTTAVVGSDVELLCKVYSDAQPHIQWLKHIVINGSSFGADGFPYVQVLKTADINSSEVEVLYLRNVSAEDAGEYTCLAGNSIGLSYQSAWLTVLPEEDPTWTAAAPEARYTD
Briefly: FGFR4 ELISA (immobilized FGFR4), O.D. 450 nm against IgG concentration.

Assay [6] has as its target T4, human FGFR4 (recombinant, construct not …). As to the kind of experiment: surface plasmon resonance, compared with chLD1. Here is the method: (§1) Affinity determinations were performed by surface plasmon resonance using a BIAcore™-2000. Approximately 50 RU of hLD1.vB IgG was immobilized in 10 mM Sodium Acetate pH 4.8 on a CM5 sensor chip and serial 2-fold dilutions of the FGFR4 (0.48-1000 nM) in PBST were injected at a flow rate of 30 μl/min. Each sample was analyzed with 4-minute association and 10-minute dissociation. After each injection the chip was regenerated using 10 mM glycine pH 1.7. Binding response was corrected by subtracting the RU from a flow cell with an irrelevant IgG immobilized at similar density. A 1:1 Languir model of simultaneous fitting of kon and koff was used for kinetics analysis.
As a first step in the humanization of LD1, the variable light and heavy domains of chLD1 were aligned with the human kappa I (huKI) and human VH subgroup III (huIII) variable domain frameworks used in trastuzumab (FIG. 10). Hypervariable regions from chLD1 were grafted into these human variable frameworks to generate a direct CDR-graft (hLD1.vA)^{15, 16}. […] Substitution of mouse sequence at various vernier positions in both the variable light and heavy domains was explored as a means to improve binding and led to the identification of three important mouse vernier positions in the LC: P44F, L46I and Y49S.

Assay [7] has the same target. As to the kind of experiment: SPR (BIAcore-2000), antibody immobilized, human FGFR4 as analyte. The procedure:
as §1
TABLE 3 Binding Kinetics of anti-FGFR4 antibody variants. The association and dissociation rates of human FGFR4 binding to immobilized antibody variants were measured using surface plasmon resonance.

The EC50 (read off the curve) is the concentration at which the effect is half-maximal. By Kd is commonly meant a measure of binding affinity in units of concentration. The koff is the first-order rate constant of dissociation.

Where a chain is given by its changes, count along the chain named. In names and notes the source's numbering stands.

T1 sequence (P01027 1002-1303 limits assumed): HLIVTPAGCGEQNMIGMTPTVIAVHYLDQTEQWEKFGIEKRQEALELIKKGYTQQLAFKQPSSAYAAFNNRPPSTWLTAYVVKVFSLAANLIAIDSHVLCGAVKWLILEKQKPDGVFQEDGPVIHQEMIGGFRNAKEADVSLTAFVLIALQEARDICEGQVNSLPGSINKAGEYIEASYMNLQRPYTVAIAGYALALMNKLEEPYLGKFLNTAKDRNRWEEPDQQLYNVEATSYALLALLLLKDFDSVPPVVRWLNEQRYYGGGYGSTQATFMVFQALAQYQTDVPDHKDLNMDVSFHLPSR

B1: chimeric LD1 (murine LD1 variable domains with human kappa and human IgG1 constant domains) (antibody, V domains shown)
VH: EVQLQQPGAVLVRPGTSVKLSCKASGYTFTNHWMNWVKQRPGQGLEWIGMIHPSDSETTLDQKFKDKATLTVDKSSSTAYMQLNRPTSEDSAVYYCTRGDISLFDYWGQGTTVTVSS
VL: DIQMTQTTSSLSASLGDRVTITCRTSQDISNFLNWYQQKPDGTFKILISYTSRLHSGVPSRFSGSGSGTDYSLTISTLEQEDFATYFCQQGNALPYTFGGGTKLEIE
notes: also called chLD1; ChLD1
For B1, the binding result in assay [1] was “no binding”. The “IC50 of inhibition of proliferation of BaF3/FGFR4/R1 cells in the presence of 5 nM FGF1” value in assay [2] came to 17400 pM. Also, the “EC50 (read off the curve)” value in assay [3] is ~0.04 µg/mL. The molecule also yielded a Kd in assay [4] of 800 pM.

B2: hLD1.vB (humanized LD1 with light chain P44F, L46I, Y49S) (antibody, V domains shown)
VH: EVQLVESGGGLVQPGGSLRLSCAASGYTFTNHWMNWVRQAPGKGLEWVGMIHPSDSETTLDQKFKDRFTISADTSKNTAYLQMNSLRAEDTAVYYCTRGDISLFDYWGQGTLVTVSS
VL: DIQMTQSPSSLSASVGDRVTITCRTSQDISNFLNWYQQKPGKAFKILISYTSRLHSGVPSRFSGSGSGTDFTLTISSLQPEDFATYYCQQGNALPYTFGQGTKVEIK
For B2, the “EC50 (read off the curve)” value in assay [5] was ~4 µg/mL. For the same molecule, in assay [6], the “fold weaker binding against chLD1” value is ~2 fold. Moreover, in assay [7], the Kd amounted to 970 pM and the koff turned out to be 0.00028 s⁻¹.

B3: hLD1.v22 (humanized and affinity matured LD1) (antibody, V domains shown)
VH: B2 VH with H52L, S54V, D61E
VL: DIQMTQSPSSLSASVGDRVTITCRTSQDISNFLNWYQQKPGKAFKILISYTSRLHSGVPSRFSGSGSGTDFTLTISSLQPEDFATYYCQQGNALPYTFGQGTKVEIKR
With B3, in assay [1], the binding result is “no binding”. For the same molecule, in assay [7], the Kd was 43 pM and the koff amounted to 3.9e-05 s⁻¹.

For the origin of these results see patent publication US20140037624A1 (Genentech, published 2014).
